One block for each binder: values may come before it.
Biological target: T1, Escherichia coli lipoyl synthase, hexahistidine-tagged (Escherichia coli, UniProt P60716 1-321)
T1 sequence (looked up): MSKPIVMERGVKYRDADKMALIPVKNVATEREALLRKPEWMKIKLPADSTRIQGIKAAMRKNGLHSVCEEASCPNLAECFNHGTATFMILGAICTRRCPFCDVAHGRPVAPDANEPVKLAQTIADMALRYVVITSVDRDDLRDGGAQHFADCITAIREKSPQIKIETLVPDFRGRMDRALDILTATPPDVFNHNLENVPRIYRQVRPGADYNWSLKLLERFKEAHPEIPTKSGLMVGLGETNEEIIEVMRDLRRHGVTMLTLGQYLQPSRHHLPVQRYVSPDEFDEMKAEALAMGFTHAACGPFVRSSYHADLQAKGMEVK
Test: co-elution on anion-exchange chromatography

binding result: binds
B1: [8,8,8-2H3]-octanoyl-H protein of Escherichia coli (natural protein, UniProt P0A6T9 1-129, looked up)
chain: MSNVPAELKYSKEHEWLRKEADGTYTVGITEHAQELLGDMVFVDLPEVGATVSAGDDCAVAESVKAASDIYAPVSGEIVAVNDALSDSPELVNSEPYAGGWIFKIKASDESELESLLDATAYEALLEDE
modifications: N6-([8,8,8-2H3]-octanoyl)-lysine (position not given)

binding result: binds
B2: octanoyl-H protein of Escherichia coli (unlabeled) (natural protein, UniProt P0A6T9 1-129, looked up)
chain: B1 chain
modifications: N6-octanoyl-lysine (position not given)

From PMC4216189 (Biochemistry, 2014)
